Results from patent US20020068273A1 (published 2002).
Where no end group is shown, it is not given here.

What was measured:
biotin-Vpr52-96 (HIV-1) = biotin-Vpr52-96 (HIV-1) (UniProt P69726); test: SPR, Langmuir isotherm, ANT104-116 on biotinylated Vpr52-96
[1] = biological target: T1, adenine nucleotide translocator (ANT), purified native protein (rat, UniProt Q05962 2-298); test: not stated (summary of the inventors' findings)
T1 construct: mature; Used detergent-solubilized (SPR), reconstituted in liposomes or planar bilayers, or inside mitochondria (pull-down); also called adenine nucleotide translocase; ADP/ATP carrier
T1 sequence: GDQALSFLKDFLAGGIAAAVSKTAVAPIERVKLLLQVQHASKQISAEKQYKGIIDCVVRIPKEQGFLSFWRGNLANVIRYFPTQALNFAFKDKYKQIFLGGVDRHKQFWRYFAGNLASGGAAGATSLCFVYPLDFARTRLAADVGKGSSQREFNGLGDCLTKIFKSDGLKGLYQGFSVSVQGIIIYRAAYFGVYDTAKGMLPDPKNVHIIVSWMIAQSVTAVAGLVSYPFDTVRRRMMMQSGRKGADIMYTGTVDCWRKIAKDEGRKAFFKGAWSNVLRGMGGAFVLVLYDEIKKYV

[2] = biological target: T1, adenine nucleotide translocator (ANT), …; test: SPR, ANT over immobilized Vpr52-96

Q: With ANT-2-derived peptide ANT104-116 as the molecule, how does the Kd (biotin-Vpr52-96 (HIV-1)) read?
A: 35000 nM

B1: Vpr protein of HIV-1 (14 Kd; 96 aa) (other)
chain: MEQAPEDQGPQREPHNEWTLELLEELKNEAVRHFPRIWLHGLGQHIYETYGDTWAGVEAIIRILQQLLFIHFRIGCRHSRIGVTRQRRARNGASRS
notes: also called HIV-1 Viral protein R
Q: How did the Kd [1] turn out when B1 was run?
A: 1 nM

B2: biotin-Vpr52-96 (peptide)
peptide: DTWAGVEAIIRILQQLLFIHFRIGCRHSRIGVTRQRRARNGASRS
modifications: also: biotin, position not given here
notes: range 52-96; Synthetic biotinylated peptide, immobilized for SPR and used as bait in the avidin-agarose pull-down; also called biotinylated Vpr52-96; immobilized Vpr C-terminal moiety
Q: How did the Kd [2] turn out when B2 was run?
A: 9.7 nM
